Reference: publication PMC6372009

How the values were obtained:
mini-procollagen III [1] = assay: SPR; Biacore T200; mini-procollagen III immobilised (240 RU), C1C2 wild-type or mutants injected, 50 μL/min, 25°C, 10 mM Na-Hepes pH 7.4, 0.15 M NaCl, 5 mM CaCl2, 0.05 % P20; 1:1 binding model
mini-procollagen III [2] = assay: SPR; details: immobilized mini-procollagen III (240 RU), flow rate 50 μL/min, 25°C; for Kd: 1:1 binding model, parent: est. 1.4 nM, read off a plot

Row | Substance | fold increase in dissociation constant against wild-type C1C2 (mini-procollagen III [1]) [fold] | Kd (mini-procollagen III [2]) [µM] | response (mini-procollagen III [2]; 48 nM C1C2, response at end of association (about 100 s), parent: est. 29, read off a …) [RU]
1 | C1C2 fragment of PCPE-1, Arg91Ala mutant (pCEP-Pu construct) (from UniProt Q15113 1-252) (domain or fragment) | 50 | – | –
2 | C1C2 fragment of PCPE-1, wild-type control, pCEP-Pu construct (N-terminal APLA, C-terminal …) (from UniProt Q15113) L234E | – | 0.02 | –
3 | C1C2 fragment of PCPE-1, wild-type control, pCEP-Pu construct (N-terminal APLA, C-terminal …) (from UniProt Q15113) R55A | – | 0.0026 | 26
4 | C1C2 fragment of PCPE-1, wild-type control, pCEP-Pu construct (N-terminal APLA, C-terminal …) (from UniProt Q15113) R55A; L234E | – | 0.054 | –
5 | C1C2 fragment of PCPE-1, wild-type control, pCEP-Pu construct (N-terminal APLA, C-terminal …) (from UniProt Q15113) R55A; R91A; L234E | – | 0.12 | –
6 | C1C2 fragment of PCPE-1, wild-type control, pCEP-Pu construct (N-terminal APLA, C-terminal …) (from UniProt Q15113) R91A | – | 0.061 | –
